Laboratory results from patent US20200129630A1, “METHODS FOR TREATING CANCER” (BicycleRD Limited, priority 2018, published 2020).
Numbered stars: 1 amine (or outer) side, 2 acyl side, 3 side chain; on linkers, the order of the positions; unused ones are H or OH. Bridge positions count the residues as written; N and C are the ends. Square brackets hold non-standard residues; d marks the D form. Peptide text beside a SMILES is read from it. * marks the point of attachment. X1 = COc1cc2cc(c1Cl)N(C)C(=O)C[C@H](OC(=O)[C@H](C)N(C)C(=O)CCSSC(C)CCC(=O)*)[C@]1(C)O[C@H]1[C@H](C)[C@@H]1C[C@@](O)(NC(=O)O1)[C@H](OC)/C=C/C=C(\C)C2; 1Nal = N[C@@H](Cc1cccc2ccccc12)C(=O)O; TBMB = c1c(C[*:1])cc(C[*:3])cc1C[*:2]; Tle = CC(C)(C)[C@H](N)C(=O)O; βAla = NCCC(=O)O; Sar = CNCC(=O)O

Experiments:
EBC-1 = test: In vitro cytotoxicity (CellTiter-Glo) EBC-1; assay type: cell-based; conditions: EBC-1, Lung
Source text: (§1) Table 1 and Table 2 Notes: in general regression and stable disease correlated with the in vitro cytotoxicity and MT1-MMP expression. Female BALB/c mice n=3/group animals dosed twice per week except EBC-1 three per week. Tumor growth inhibition (TGI) (%)=[1−(Ti−T0)/(Vi−V0)]×100; Ti is the average tumor volume of a treatment group on a given day, TO is the average tumor volume of the treatment group on the day of treatment start, Vi is the average tumor volume of vehicle control group on the same day with Ti, and V0 is the average tumor volume of vehicle group on the day of treatment start. A one-way ANOVA was performed to compare tumor volume among groups, and when a significant F-statistics (a ratio of treatment variance to the error variance) was obtained, comparisons between groups were carried out with Games-Howell test. All data were analyzed using GraphPad Prism.* p<0.05, ** p<0.01, *** p<0.001. In vitro cytotoxicity was measured by CellTiter-Glo®, MT1-MMP membrane H score from immunohistochemistry staining, NM not measured. Tumor size on Day 1 of dosing.

NCI-H292 = test: In vitro cytotoxicity (CellTiter-Glo) NCI-H292; assay type: cell-based; conditions: NCI-H292, NSCLC
Source text: as §1

MOLP-8 = test: In vitro cytotoxicity (CellTiter-Glo) MOLP-8; assay type: cell-based; conditions: MOLP-8, Myeloma
Source text: as §1

[1] = Stability in whole blood in vitro, rat; assay type: in vitro ADME; conditions: 37° C.
Method: (§2) The stability of BT1718 was assessed in plasma and whole blood from humans, monkey, dog, mouse and rat. […] The mechanism for the difference in stability of the BT1718 peptide in whole blood between the different species is unknown.

[2] = Stability in whole blood in vitro, dog; assay type: in vitro ADME; conditions: 37° C.
Method: as §2

[3] = Intrinsic clearance in cryopreserved hepatocytes; assay type: in vitro ADME
Method: Accumulation of the majority of the radioactivity was found in the kidney and bladder irrespective of the labelled peptide dose; this is indicative of either non-saturable excretion or proteolysis followed by excretion through the kidneys. Furthermore, the intrinsic clearance of BT1718 and its Bicycle component, N241 was low when measured in cryopreserved hepatocytes. […] Unconjugated DM1, when radiolabelled, (as [[^3H]-DM1 (91 μCi/kg, 200 μg/kg, IV), was reported to distribute rapidly and extensively to the lungs, liver, kidney, spleen, heart, gastrointestinal tract, and adrenal glands in the rat. The major route of excretion of DM1 was through the bile/faeces, with a minimal amount excreted in the urine, a completely different distribution to BT1718 and its metabolites with little and short lived accumulation seen in other organs such as heart, liver, GI and lungs which would imply that these organs maybe spared systemic toxicity.

[4] = Sprague Dawley rat PK study; assay type: in vivo; conditions: plasma, 15 mg/m2, male, 15 mg/m^2 IV
[5] = Wistar Han rat GLP study toxicokinetics; assay type: in vivo; conditions: plasma, Day 1 male; for Cmax: read-out: C0/Cmax
Source text: In a repeat dose experiment with BT1718 no significant gender-related differences in the TK parameters for the rat or monkey were noted. Exposure in both the rat and monkey increased approximately linearly with dose and was maintained for 28 days on repeat dosing. […] Plasma clearance and volume of distribution were similar across BT1718 dose and consistent with the PK studies.

[6] = GLP-compliant 28-day repeat dose toxicity study, rat; assay type: in vivo
Method: (§3) In a GLP-compliant study in Cynomolgus monkeys, the highest non-severely toxic dose (HNSTD) of BT1718 was established to be 18 mg/m^2 administered twice weekly, equivalent to a human dose of 0.48 mg/kg. In a GLP-compliant study in the rat, the MTD was not reached with the highest administered dose 6 mg/m^2 twice weekly. At this dose level, there was kidney toxicity (with no effect on clinical condition) and also testicular toxicity. After 28 days off-dose, there was evidence of partial recovery of kidney-related findings, but no recovery of testicular effects at this dose level. […] Therefore, the MTD for rat for twice weekly dosing was considered to be between 1 and 1.5 mg/kg.

[7] = Non-GLP toxicity studies, rat; assay type: in vivo
Method: as §3

[8] = Non-GLP toxicity studies, monkey; assay type: in vivo, monkeys
Source text: (§4) These include in vitro tissue microarray in human, rat and monkey tissues and in vitro and in vivo assessment of immunogenicity. In vivo assessments include single dose toxicity in mice and rats, multiple dose range finding studies in mice, rats, dogs and monkeys (non-GLP) and GLP-compliant multiple dose studies in rats and monkeys consisting of 28-day on study phase with a 28-day recovery period.

[9] = Non-GLP toxicity studies, mouse; assay type: in vivo
Source text: as §4

[10] = CD1 mouse dose response PK study
[11] = 1.2 mg/m2, Wister Han rats GLP, 1.2 mg/m^2 IV
[12] = 3 mg/m2, Wister Han rats GLP, 3 mg/m^2 IV
[13] = 6 mg/m2, Wister Han rats GLP, 6 mg/m^2 IV
[14] = rat GLP, 1 mg/kg (6 mg/m^2) twice weekly
[15] = rat GLP, males 1 mg/kg (6 mg/m^2) twice weekly
[16] = male, CD1, mouse, plasma, iv, 15 mg/m2
[17] = male, CD1, mouse, plasma, iv, 30 mg/m2
[18] = male, CD1, mouse, plasma, iv, 60 mg/m2

COc1cc2cc(c1Cl)N(C)C(=O)C[C@H](OC(=O)[C@H](C)N(C)C(=O)CCSSC(C)CCC(=O)NCCC(=O)N(C)CC(=O)N(C)CC(=O)N(C)CC(=O)N(C)CC(=O)N(C)CC(=O)N(C)CC(=O)N(C)CC(=O)N(C)CC(=O)N(C)CC(=O)N(C)CC(=O)N[C@@H](C)C(=O)N[C@H]1CSCc3cc4cc(c3)CSC[C@H](NC(=O)[C@@H](C)NC(=O)[C@H](Cc3cccc5ccccc35)NC(=O)[C@H](CCC(=O)O)NC(=O)[C@H](CC(N)=O)NC(=O)[C@@H](C)NC1=O)C(=O)N[C@@H](CCC(=O)O)C(=O)N[C@@H](CC(=O)O)C(=O)N[C@@H](Cc1ccccc1)C(=O)N[C@@H](Cc1ccc(O)cc1)C(=O)N[C@@H](CC(=O)O)C(=O)N[C@@H](C(C)(C)C)C(=O)N[C@H](C(N)=O)CSC4)[C@]1(C)O[C@H]1[C@H](C)[C@@H]1C[C@@](O)(NC(=O)O1)[C@H](OC)/C=C/C=C(\C)C2 (some centres unmarked) [BT1718] ({X1-βAla}-[Sar][Sar][Sar][Sar][Sar][Sar][Sar][Sar][Sar][Sar]AC[dA]NE[1Nal][dA]CEDFYD[Tle]C-NH2; linker 12-18-25 via TBMB (inferred))
IC50 (EBC-1): 27 nM | IC50 (NCI-H292): 11.6 nM | IC50 (MOLP-8): 141 nM | half-life [1]: > 1440 min | half-life [2]: > 1440 min | intrinsic clearance [3]: low | AUC [4]: 1.5 ± 0.2 µM·h | clearance [4]: 9.4 ± 1.1 mL/min/kg | half-life [4]: 33.6 ± 6.6 min | Cmax ([4]; read-out: C0/Cmax): 4200 ± 1100 nM | Vd ([4]; read-out: Vdss): 0.29 ± 0.03 L/kg | AUC [5, 11]: 0.09 µM·h | Cmax [5, 11]: 80 nM | AUC [5, 12]: 0.46 µM·h | Cmax [5, 12]: 590 nM | AUC [5, 13]: 0.85 µM·h | Cmax [5, 13]: 1020 nM | GI-related findings ([6]; GLP rat): No GI-related findings | bladder changes ([6]; GLP rat): No bladder changes | MTD ([6]; GLP rat, highest administered dose 6 mg/m^2 twice weekly): not reached | MTD at 28 day ([6]; in vivo, intravenous, considered from GLP and non-GLP rat studies, read-out: MTD for rat for twice weekly dosing): 1 to 1.5 mg/kg | anti-drug antibodies (ADAs) in serum ([6]; rat 28-day GLP study): negative | hepatic findings ([6]; rat GLP 28 day, 1 mg/kg (6 mg/m^2) twice weekly): minimal to slight reversible hepatocellular atrophy | raised ALP, AST and cholesterol, from control values ([6]; rat GLP 28 day, 1 mg/kg twice weekly): ≤ 1.5 × | erythrocyte parameters, maximum drop [6, 14]: 0.64 × | increase in platelets, maximum [6, 14]: 2.3 × | reduction in reticulocytes ([6]; rat GLP, 1 mg/kg (6 mg/m^2) twice weekly, females): 0.37 × | reduction in reticulocytes ([6]; rat GLP, 1 mg/kg (6 mg/m^2) twice weekly, males): 0.06 × | reproductive organ findings ([6]; rat GLP, all males 1 mg/kg (6 mg/m^2) twice weekly): testicular degeneration/atrophy of the seminiferous tubules and the absence of sperm | incidence of minimal hypertrophy of the zona glomerulosa ([6]; rat GLP, females 1 mg/kg (6 mg/m^2) twice weekly): 5 of 10 | incidence of minimal hypertrophy of the zona glomerulosa ([6]; rat GLP, males 0.2 mg/kg (1.2 mg/m^2) twice weekly): 2 of 10 | incidence of minimal hypertrophy of the zona glomerulosa ([6]; rat GLP, males 0.5 mg/kg (3 mg/m^2) twice weekly): 3 of 10 | adrenal gland terminal weights [6, 15]: significantly lower terminal weights | incidence of minimal hypertrophy of the zona glomerulosa [6, 15]: 4 of 10 | onset dose of renal tubular epithelial degeneration ([6]; rat GLP, twice weekly): 0.2 mg/kg | axonal degeneration ([6]; rat study): not observed | tolerability ([7]; non-GLP rat, 9 mg/m^2 twice weekly): not well tolerated | GI findings ([7]; rat 5.03 mg/kg (30.2 mg/m^2) twice): Single cell necrosis of the ileum | bladder findings ([7]; rat, single administration of 40 mg/m^2): Bladder epithelial degeneration | peripheral haematology ([7]; rats 1.5 mg/kg, 9 mg/m^2 twice weekly): significant decreases in WBCs | hepatic findings ([7]; rats 3.35 mg/kg, 20.1 mg/m^2 twice weekly): Elevated liver enzymes | renal findings ([7]; rats >1 mg/kg, 6 mg/m^2 twice weekly): Moderate renal tubule degeneration and epithelial mitosis | peripheral haematology ([8]; monkeys 2 mg/kg, 24 mg/m^2 once weekly): significant decreases in WBCs | GI findings ([8]; monkeys, single 3 mg/kg (36 mg/m^2) one week post 1.5 mg/kg dose): mild single cell necrosis of the glandular epithelial cells in the caecum | GI findings ([9]; mice, single dose of 13.4 mg/kg (40.2 mg/m^2)): intestinal mucosal mitosis | renal findings ([9]; mouse 3.3 mg/kg, 10 mg/m^2 three times weekly): Moderate renal tubule degeneration and epithelial mitosis | AUC ([10]; CD1, mouse, plasma, intravenous, 10 mg/kg): 5.3 µM·h | AUC ([10]; CD1 mouse, male, 30 mg/m^2 IV): 5.3 | AUC ([10]; CD1 mouse, male, 60 mg/m^2 IV): 11.6 | AUC ([10]; male, CD1, mouse, plasma, intravenous, 20 mg/kg): 11.6 µM·h | AUC [10, 16]: 2.8 µM·h | Cmax [10, 16]: 9300 nM | Vd [10, 16]: 0.2 L/kg | clearance [10, 16]: 8.4 mL/min/kg | half-life [10, 16]: 19.8 min | Cmax ([10]; male, CD1, mouse, plasma, iv, 20 mg/kg): 38200 nM | Vd [10, 17]: 0.27 L/kg | clearance [10, 17]: 9 mL/min/kg | half-life [10, 17]: 20.4 min | Vd [10, 18]: 0.22 L/kg | clearance [10, 18]: 8.2 mL/min/kg | half-life [10, 18]: 20.4 min
